This note sets out measurements from the supplement of paper PMC9112550, “Optimization of the antimicrobial peptide Bac7 by deep mutational scanning” (BMC Biology, 2022).

The subject of the data set is Escherichia coli TOP10. The experiment in a line: shrunken log2 fold change of peptide-encoding DNA abundance (4.5 h post-induction vs induction); higher = less antimicrobial activity (less host growth inhibition). The conditions noted are these: time post-induction: 4.5 h; library: site-saturation at positions 5, 18, 19, 20.
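Also: peptides expressed intracellularly from a pBAD plasmid library in pooled LB shake-flask culture, induced with 0.3% L-arabinose, DNA abundance read by NGS, three biological replicates, DESeq2 with apeglm shrinkage.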

RRIRWRPPRLPRPRPRPTMRPRP: the “shrunken log2 fold change” value came to 0.925.

As for RRIRERPPRLPRPRPRPSCFPRP, the “shrunken log2 fold change” value was -0.322.

For RRIRVRPPRLPRPRPRPVFCPRP, the “shrunken log2 fold change” value stood at 0.142.

Turning to RRIRKRPPRLPRPRPRPTLNPRP, the “shrunken log2 fold change” value came out at 0.505.

As to RRIRTRPPRLPRPRPRPQYKPRP, the “shrunken log2 fold change” value was -1.04.

On to RRIRFRPPRLPRPRPRPGGRPRP, for which the “shrunken log2 fold change” value amounted to 0.323.

In the case of RRIRQRPPRLPRPRPRPHKNPRP, the “shrunken log2 fold change” value is -0.194.

As to RRIRSRPPRLPRPRPRPFELPRP, the “shrunken log2 fold change” value turned out to be 0.0413.

As to RRIRVRPPRLPRPRPRPMGYPRP, the “shrunken log2 fold change” value is -0.0568.

Consider RRIRFRPPRLPRPRPRPPRDPRP, for which the “shrunken log2 fold change” value is 1.

For the sequence RRIRYRPPRLPRPRPRPGHTPRP, the “shrunken log2 fold change” value was -0.626.

Consider RRIRGRPPRLPRPRPRPVISPRP, for which the “shrunken log2 fold change” value came to 0.623.

Consider RRIRQRPPRLPRPRPRPHHCPRP, for which the “shrunken log2 fold change” value was -0.652.

With RRIRVRPPRLPRPRPRPEKMPRP, the “shrunken log2 fold change” value is -0.3.

As to RRIRFRPPRLPRPRPRPKNAPRP, the “shrunken log2 fold change” value is -0.0814.

Consider RRIRIRPPRLPRPRPRPCVMPRP, for which the “shrunken log2 fold change” value is -0.106.

Consider RRIRQRPPRLPRPRPRPGWCPRP, for which the “shrunken log2 fold change” value is 0.0842.

On to RRIRSRPPRLPRPRPRPTPIPRP, for which the “shrunken log2 fold change” value was 0.0944.

Take RRIRVRPPRLPRPRPRPANKPRP: the “shrunken log2 fold change” value was -0.36.

With RRIRVRPPRLPRPRPRPYCQPRP, the “shrunken log2 fold change” value is -1.64.

Regarding RRIRTRPPRLPRPRPRPACPPRP, the “shrunken log2 fold change” value is 0.178.

RRIRYRPPRLPRPRPRPDGMPRP: the “shrunken log2 fold change” value was determined as 0.0112.

On to RRIRCRPPRLPRPRPRPWAIPRP, for which the “shrunken log2 fold change” value was -0.0169.

RRIRFRPPRLPRPRPRPADQPRP: the “shrunken log2 fold change” value was -0.144.

Turning to RRIRHRPPRLPRPRPRPYREPRP, the “shrunken log2 fold change” value is 0.0421.

Regarding RRIRNRPPRLPRPRPRPEERPRP, the “shrunken log2 fold change” value is -0.116.

As for RRIRFRPPRLPRPRPRPPRFPRP, the “shrunken log2 fold change” value is 0.454.

Turning to RRIRFRPPRLPRPRPRPEEPPRP, the “shrunken log2 fold change” value worked out at 0.248.

As for RRIRSRPPRLPRPRPRPPCRPRP, the “shrunken log2 fold change” value turned out to be 0.426.

With RRIRDRPPRLPRPRPRPALMPRP, the “shrunken log2 fold change” value amounted to 0.333.

As for RRIRNRPPRLPRPRPRPSMSPRP, the “shrunken log2 fold change” value was -0.222.

As for RRIRRRPPRLPRPRPRPPRLPRP, the “shrunken log2 fold change” value was 1.1.

RRIRCRPPRLPRPRPRPKKVPRP: the “shrunken log2 fold change” value was -0.00128.

With RRIRSRPPRLPRPRPRPDGEPRP, the “shrunken log2 fold change” value stood at 0.0597.

With RRIRQRPPRLPRPRPRPMVWPRP, the “shrunken log2 fold change” value is -0.0183.

With RRIRSRPPRLPRPRPRPKNGPRP, the “shrunken log2 fold change” value is -0.105.

For the sequence RRIRQRPPRLPRPRPRPCPPPRP, the “shrunken log2 fold change” value was 0.00708.

For RRIRGRPPRLPRPRPRPCHFPRP, the “shrunken log2 fold change” value is 0.0576.

For RRIRGRPPRLPRPRPRPHAKPRP, the “shrunken log2 fold change” value is 0.126.

For the sequence RRIRHRPPRLPRPRPRPQWVPRP, the “shrunken log2 fold change” value came out at 0.0322.

On to RRIRIRPPRLPRPRPRPIDQPRP, for which the “shrunken log2 fold change” value was -0.341.

As for RRIRRRPPRLPRPRPRPTHDPRP, the “shrunken log2 fold change” value worked out at 0.89.

On to RRIRFRPPRLPRPRPRPNQLPRP, for which the “shrunken log2 fold change” value is -1.2.

For the sequence RRIRCRPPRLPRPRPRPNENPRP, the “shrunken log2 fold change” value is -0.0814.

For the sequence RRIRARPPRLPRPRPRPRDAPRP, the “shrunken log2 fold change” value turned out to be 0.91.

Take RRIRRRPPRLPRPRPRPGAEPRP: the “shrunken log2 fold change” value is 2.68.

On to RRIRFRPPRLPRPRPRPDWSPRP, for which the “shrunken log2 fold change” value is -0.214.

On to RRIRVRPPRLPRPRPRPMHSPRP, for which the “shrunken log2 fold change” value was -0.179.

On to RRIRRRPPRLPRPRPRPLIRPRP, for which the “shrunken log2 fold change” value is -0.295.

Regarding RRIRLRPPRLPRPRPRPPWAPRP, the “shrunken log2 fold change” value was 0.632.

RRIRKRPPRLPRPRPRPIVYPRP: the “shrunken log2 fold change” value is -0.0564.

In the case of RRIRVRPPRLPRPRPRPPDSPRP, the “shrunken log2 fold change” value is -0.136.

For the sequence RRIRPRPPRLPRPRPRPSPRPRP, the “shrunken log2 fold change” value came out at 0.633.

Consider RRIRFRPPRLPRPRPRPPNAPRP, for which the “shrunken log2 fold change” value worked out at 0.353.

As to RRIRRRPPRLPRPRPRPFIYPRP, the “shrunken log2 fold change” value is -0.194.

On to RRIRRRPPRLPRPRPRPKWLPRP, for which the “shrunken log2 fold change” value was determined as 0.269.

RRIRYRPPRLPRPRPRPMNQPRP: the “shrunken log2 fold change” value is -0.383.

On to RRIRDRPPRLPRPRPRPIWNPRP, for which the “shrunken log2 fold change” value was -0.0889.

In the case of RRIRMRPPRLPRPRPRPQNLPRP, the “shrunken log2 fold change” value amounted to 0.12.

Consider RRIRARPPRLPRPRPRPDLYPRP, for which the “shrunken log2 fold change” value worked out at 0.00132.

As to RRIRIRPPRLPRPRPRPAFMPRP, the “shrunken log2 fold change” value was -0.3.

Regarding RRIRRRPPRLPRPRPRPYHQPRP, the “shrunken log2 fold change” value is -0.0224.

For RRIRSRPPRLPRPRPRPFDVPRP, the “shrunken log2 fold change” value was -0.151.

RRIRTRPPRLPRPRPRPLDHPRP: the “shrunken log2 fold change” value is -0.186.

RRIRARPPRLPRPRPRPEKNPRP: the “shrunken log2 fold change” value is 0.538.

In the case of RRIRARPPRLPRPRPRPRPHPRP, the “shrunken log2 fold change” value stood at 0.513.

As to RRIRCRPPRLPRPRPRPQHPPRP, the “shrunken log2 fold change” value is -0.132.

As for RRIRMRPPRLPRPRPRPAKSPRP, the “shrunken log2 fold change” value was 0.261.

With RRIRHRPPRLPRPRPRPTHEPRP, the “shrunken log2 fold change” value worked out at 0.0424.

Turning to RRIRNRPPRLPRPRPRPYVYPRP, the “shrunken log2 fold change” value is -1.31.

For RRIRWRPPRLPRPRPRPYEEPRP, the “shrunken log2 fold change” value was -0.334.

Regarding RRIRGRPPRLPRPRPRPMMVPRP, the “shrunken log2 fold change” value worked out at 0.294.

As to RRIRPRPPRLPRPRPRPIRGPRP, the “shrunken log2 fold change” value amounted to 0.182.

As for RRIRPRPPRLPRPRPRPEHEPRP, the “shrunken log2 fold change” value amounted to 0.0185.

RRIRMRPPRLPRPRPRPFLQPRP: the “shrunken log2 fold change” value is -0.0339.

For the sequence RRIRFRPPRLPRPRPRPGINPRP, the “shrunken log2 fold change” value was -0.288.

RRIRTRPPRLPRPRPRPKMAPRP: the “shrunken log2 fold change” value was determined as 0.129.

For RRIRCRPPRLPRPRPRPHMVPRP, the “shrunken log2 fold change” value was -0.149.

As for RRIRGRPPRLPRPRPRPHCMPRP, the “shrunken log2 fold change” value was -0.207.

Turning to RRIRLRPPRLPRPRPRPNKQPRP, the “shrunken log2 fold change” value is -0.0903.

Consider RRIRLRPPRLPRPRPRPNVWPRP, for which the “shrunken log2 fold change” value is 0.346.

With RRIRIRPPRLPRPRPRPDRVPRP, the “shrunken log2 fold change” value was -0.0924.

Turning to RRIRWRPPRLPRPRPRPIFKPRP, the “shrunken log2 fold change” value is 0.0632.

Regarding RRIRWRPPRLPRPRPRPRYMPRP, the “shrunken log2 fold change” value was -0.139.

Take RRIRNRPPRLPRPRPRPQCPPRP: the “shrunken log2 fold change” value is -0.33.

RRIRWRPPRLPRPRPRPFHVPRP: the “shrunken log2 fold change” value was -0.0106.

On to RRIRRRPPRLPRPRPRPFPSPRP, for which the “shrunken log2 fold change” value came to 0.114.

Take RRIRHRPPRLPRPRPRPPKGPRP: the “shrunken log2 fold change” value was 0.113.

RRIRVRPPRLPRPRPRPTMDPRP: the “shrunken log2 fold change” value was -0.116.

On to RRIRTRPPRLPRPRPRPGAKPRP, for which the “shrunken log2 fold change” value amounted to 0.524.

RRIRCRPPRLPRPRPRPKYVPRP: the “shrunken log2 fold change” value was -0.394.
